# Key:
# [1] = target: serum HBeAg in HBeAg-transgenic mice (hepatitis B virus); assay: cell-based or functional assay
# [2] = target: T1, truncated recombinant form of HBeAg containing nine residues of pre-core and the 150 first residues of HBcAg (hepatitis B virus, UniProt P03146 1-150); assay: EIA, HBeAg on solid phase, fusion peptide 20 ug/well, gG2 mAb detection
# T1 construct: domain: nine residues of pre-core;range 1-150; also called hepatitis B virus e antigen
# T1 sequence (P03146 1-150): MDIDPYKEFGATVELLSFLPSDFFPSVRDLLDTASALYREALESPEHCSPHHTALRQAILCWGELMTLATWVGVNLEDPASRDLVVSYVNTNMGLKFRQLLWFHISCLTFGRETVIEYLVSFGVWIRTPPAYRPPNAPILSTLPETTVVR
# Chain of serum HBeAg in HBeAg-transgenic mice (hepatitis B virus) (P0C573 20-183): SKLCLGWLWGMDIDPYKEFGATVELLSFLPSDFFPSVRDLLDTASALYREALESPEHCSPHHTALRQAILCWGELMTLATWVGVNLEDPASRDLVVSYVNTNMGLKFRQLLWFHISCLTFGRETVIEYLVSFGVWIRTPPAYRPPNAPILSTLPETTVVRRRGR
binder,measurement,setting,value
VKLSCKASGYIFTSHRGGPEE [VKLSCKASGYIFTSHRGGPEE (SEQ. ID. No. 74)],"Fold change in serum HBeAg levels by EIA in HBeAg-Tg mice, day 0",[1],1 fold
same,"Fold change in serum HBeAg levels by EIA in HBeAg-Tg mice, day 1",[1],1.5 fold
same,"Fold change in serum HBeAg levels by EIA in HBeAg-Tg mice, day 3",[1],2.3 fold
same,"Fold change in serum HBeAg levels by EIA in HBeAg-Tg mice, day 6",[1],2.3 fold
same,"Fold change in serum HBeAg levels by EIA in HBeAg-Tg mice, day 9",[1],3.3 fold
same,gG2 mAb binding (OD),[2],1.73 OD

# Reference: patent US20020058247A1 (TRIPEP, published 2002)
